# Changes are numbered by the printed parent chain. Names may count otherwise.
# B1: OmpF1 (OmpF R82H/Y102H/R132H) (natural protein, UniProt P02931 23-362, looked up)
# chain: AEIYNKDGNKVDLYGKAVGLHYFSKGNGENSYGGNGDMTYARLGFKGETQINSDLTGYGQWEYNFQGNNSEGADAQTGNKTHLAFAGLKYADVGSFDYGRNHGVVYDALGYTDMLPEFGGDTAYSDDFFVGHVGGVATYRNSNFFGLVDGLNFAVQYLGKNERDTARRSNGDGVGGSISYEYEGFGIVGAYGAADRTNLQEAQPLGNGKKAEQWATGLKYDANNIYLAANYGETRNATPITNKFTNTSGFANKTQDVLLVAQYQFDFGLRPSIAYTKSKAKDVEGIGDVDLVNYFEVGATYYFNKNMSTYVDYIINQIDSDNKLGVGSDDTVAVGIVYQF
# notes: outer membrane protein F (OmpF), UniProt P02931, expressed without the native 22-residue signal peptide; His-tag and thrombin site were deleted from the plasmid; Crystallised with 1.2 equiv. of Zn ion per protomer; also called R132H/Y102H/R82H; source: E. coli BL21(DE3)
# B2: OmpF2 (OmpF L83H/Y102H/R132H) (natural protein, UniProt P02931 23-362, looked up)
# chain: B1 chain with H82R, L83H
# notes: outer membrane protein F (OmpF), UniProt P02931, expressed without the native 22-residue signal peptide; His-tag and thrombin site were deleted from the plasmid; Crystallised with 1.2 equiv. of Zn ion per protomer; also called R132H/Y102H/L83H; source: E. coli BL21(DE3)
# Experiments:
# [1] = tested on: T1, O=C(Cc1cccs1)N[C@@H]1C(=O)N2C(C(=O)O)=C(/C=C/c3ccc([N+](=O)[O-])cc3[N+](=O)[O-])CS[C@H]12; assay: purified protein; type: biochemical, Escherichia coli; conditions: 50 mM Tris-HCl pH 8, room temperature
# T1 construct: mature OmpF; His-tag and thrombin site deleted; beta-barrel trimer
# [2] = biological target: the molecule itself; assay: SDS-PAGE of the refolded protein; unfolded OmpF (20 mg/mL) refolded with 1% n-dodecyl-β-D-glucopyranoside and 1% n-dodecyl-β-D-maltopyranoside at 37 °C for 1-2 days; folding and oligomerization determined by 15% SDS-PAGE
# [3] = OmpF1Y, 1.2 equiv. ZnCl2, 10 µM protein
# [4] = OmpF1, 1.2 equiv. ZnCl2, 10 µM protein
# [5] = OmpF2, 1.2 equiv. ZnCl2, 10 µM protein
molecule,measurement,setting,value
"OmpF (outer membrane protein F; OmpF1, OmpF1Y, OmpF2 and evolved variants) (Escherichia coli K-12; R104H/R154H)",Km,[1]; [3],2000 ± 1000 µM
same,kcat,[1]; [3],0.02 ± 0.01 s⁻¹
"OmpF (outer membrane protein F; OmpF1, OmpF1Y, OmpF2 and evolved variants) (Escherichia coli K-12; R104H/R154H/Y124H)",Km,[1]; [4],1400 ± 600 µM
same,kcat,[1]; [4],0.017 ± 0.004 s⁻¹
"OmpF (outer membrane protein F; OmpF1, OmpF1Y, OmpF2 and evolved variants) (Escherichia coli K-12; L105H/R154H/Y124H)",Km,[1]; [5],1700 ± 600 µM
same,kcat,[1]; [5],0.025 ± 0.005 s⁻¹
B1,stoichiometry N,[2],3
B2,stoichiometry N,[2],3

# Source: article PMC9652281, “Design and directed evolution of noncanonical β-stereoselective metalloglycosidases” (Nature Communications, 2022)
